Numbering of substitutions follows the chain as printed.

Sequences and labels used below:
B1: huAb18v1-CZ (conjugate)
VH: EVQLVQSGAEVKKPGSSVKVSCKASGYSFTSYTIHWVRQAPGQGLEWMGYINPNSRNTDYNQKFKDRVTITADKSTSTAYMELSSLRSEDTAVYYCARYSGSTPYWYFDVWGQGTTVTVSS
VL: DIQLTQSPSFLSASVGDRVTITCRASSSVSYMNWYQQKPGKAPKLLIYATSNLASGVPSRFSGSGSGTEFTLTISSLQPEDFATYYCQQWSSNPLTFGQGTKLEIK
B2: huAb18v9-CZ (conjugate)
VH: B1 VH with M48I, V68T, I70L, K74R
VL: EIVLTQSPDFQSVTPKEKVTITCRASSSVSYMNWYQQKPDQSPKPWIYATSNLASGVPSRFSVSVSGTDHTLTINSLEAEDAATYYCQQWSSNPLTFGQGTKLEIK
B3: huAb18v10-CZ (conjugate)
VH: B1 VH with N61A, K65Q, D66G, I70L
VL: B1 VL with L45P, L46W, G63V, F70H
B4: huAb18v3-CZ (conjugate)
VH: B1 VH with M48I, V68T, I70L, K74R
VL: B1 VL with A42S, L45P, L46W, G63V, G65V, F70H
B5: huAb18v7-CZ (conjugate)
VH: B1 VH with N61A, K65Q, D66G, I70L
VL: B2 VL
B6: huAb18v8-CZ (conjugate)
VH: B1 VH with M48I, V68T, I70L, K74R
VL: B1 VL with L45P, L46W, G63V, F70H
B7: huAb18v5-CZ (conjugate)
VH: B1 VH
VL: B2 VL with P45L, W46L, Y48K, V63G, V65G, H70F
B8: huAb18v2-CZ (conjugate)
VH: B1 VH with N61A, K65Q, D66G, I70L
VL: B1 VL
B9: huAb18v4-CZ (conjugate)
VH: B1 VH with N61A, K65Q, D66G, I70L
VL: B1 VL with A42S, L45P, L46W, G63V, G65V, F70H
B10: huAb18v6-CZ (conjugate)
VH: B1 VH with N61A, K65Q, D66G, I70L
VL: B2 VL with P45L, W46L, Y48K, V63G, V65G, H70F
B11: huAb3v3-CZ (conjugate)
VH: EVQLVQSGAEVKKPGSSVKVSCKASGYTFSSYWMHWVRQAPGQGLEWIGLIHPDSGSTNYNEMFKNRATLTVDRSTSTAYVELSSLRSEDTAVYFCAGGGRLYFDYWGQGTTVTVSS
VL: DVVMTQSPLSLPVTPGEPASISCRSSQSLVHSNGDTYLRWYLQKPGQSPQLLIYKVSNRFSGVPDRFSGSGSGTDFTLKISRVEAEDVGVYFCSQSTHVPYTFGGGTKVEIK
B12: huAb3v5-CZ (conjugate)
VH: B11 VH with V81M, F95Y
VL: B11 VL with F92Y
B13: huAb3v1-CZ (conjugate)
VH: B11 VH with I48M, A68V, L70I, V72A, R74K, V81M, F95Y, G98R
VL: B11 VL with V2I, F92Y
B14: huAb3v6-CZ (conjugate)
VH: B11 VH
VL: B11 VL with F92Y

System in one data set: not listed separately
Put plainly: Aggregation of conjugates by SEC. It is filed as physicochemical. Particulars: Table 10; CZ conjugates of Ab18 variants. On the technique in general: SEC sorts molecules by how far they enter the pores of the column.
Turning to B1, the “% agg by SEC” value was determined as 3.3%.

For the molecule B2, the “% agg by SEC” value worked out at 3.8%.

B3: the “% agg by SEC” value is listed as 3.2%.

In the case of B4, the “% agg by SEC” value is on record as 3.6%.

On to B5, for which the “% agg by SEC” value is 3.6%.

With B6, the “% agg by SEC” value came out at 3.5%.

Consider B7, for which the “% agg by SEC” value is given as 4.2%.

In the case of B8, the “% agg by SEC” value is recorded as 3.3%.

With B9, the “% agg by SEC” value is 5.5%.

B10: the “% agg by SEC” value is 3.5%.

The same data set, now with this note: Table 14; CZ conjugates of Ab3 variants.
B11: the “% agg by SEC” value is listed as 2.5%.

As for B12, the “% agg by SEC” value was found to be 5.9%.

With B13, the “% agg by SEC” value was found to be 3.3%.

For the molecule B14, the “% agg by SEC” value was 4.9%.

The test system of a further data set is HCC38 cell line. Put plainly: Cell cytotoxicity of ADCs in HCC38 cell line. It counts as cell-based. Particulars: Table 10; CZ conjugates. The method, then: The humanization of chAb18 generated 10 variants (described above in Table 9) that retained binding to human and cyno B7-H3 as assessed by FACS (the method of which is described above in Example 6). These variants were further characterized for binding by SPR and were successfully conjugated to the Bcl-xL inhibitor synthon CZ using Method A (described above) and assessed for cell cytotoxicity as described in Example 7. The parental chAb18 from which the variants were derived was also tested as a comparator. All humanized variants had similar binding properties as assessed by biacore, and retained binding activity to cell surface expressed as conjugates with the CZ synthon. The cytotoxicity of all of the variants as CZ synthons were similar to the chAb18 from which they were derived.
Humanized chAb18 variants were conjugated to the CZ synthon and tested for cytotoxicity in HCC38 cell line.
For orientation: IC50 means the point on the concentration scale where inhibition reaches its midpoint. For the molecule B1, half-maximal inhibition (IC50) was put at 390 pM. This counts as sub-nanomolar.

In turn, B2 yielded an IC50 of 900 pM.

Turning to B4, the 50% inhibitory concentration (IC50) was found to be 320 pM.

In turn, B5 gave an IC50 of 30 pM.

In turn, B6 registered a concentration for half-maximal inhibition (IC50) of 1300 pM. This IC50 is about 43-fold higher than that of the molecule before.

As to B7, the 50% inhibitory concentration (IC50) came out at 120 pM.

B9 gave an IC50 of 290 pM.

For B10, the half-maximal inhibitory concentration (IC50) is 140 pM.

The data set is the same for the next values; noted with them: Table 14; CZ conjugates.
As to B11, the half-maximal inhibitory concentration (IC50) was 9220 pM.

Molecule B12 had an IC50 of 170 pM. Compared with the last molecule, the IC50 is about 54-fold lower.

In the case of B13, the IC50 is 530 pM.

Take B14: the IC50 is 130 pM.

A further data set has as its system NCI-H146 cells. Put plainly: In vivo xenograft model of small cell lung cancer (NCI-H146). More on the design: species or system mice. Particulars: Table 11; 6 mg/kg/IP/QDx1.
For B1, the “TGD (%)” value came to 45% and the “TGImax (%)” value is 79%.

As to B2, the “TGD (%)” value came to 35% and the “TGImax (%)” value is recorded as 83%.

With B4, the “TGD (%)” value turned out to be 39% and the “TGImax (%)” value is 81%.

In the case of B5, the “TGD (%)” value came out at 42% and the “TGImax (%)” value came out at 87%.

Turning to B9, the “TGD (%)” value is 48% and the “TGImax (%)” value came out at 85%.

For B10, the “TGD (%)” value is reported as 45% and the “TGImax (%)” value is given as 86%.

The data set is the same for the next values; noted with them: Table 15; 6 mg/kg/IP/QDx1.
As for B14, the “TGD (%)” value is 88% and the “TGImax (%)” value amounted to 91%.

Source of the values: patent US10640563B2, “Anti-B7-H3 antibodies and antibody drug conjugates” (AbbVie Inc., priority 2016, dated 2020).
